The source of these data is patent US20160237154A1 (SORRENTO THERAPEUTICS, published 2016).

T1: human CTLA4 (human, UniProt P16410 36-161, limits assumed)
T1 sequence (looked up): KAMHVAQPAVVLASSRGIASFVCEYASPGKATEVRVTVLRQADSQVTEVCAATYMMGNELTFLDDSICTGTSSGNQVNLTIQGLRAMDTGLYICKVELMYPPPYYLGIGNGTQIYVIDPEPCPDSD

T2: Recombinant human CTLA4/His (human, UniProt P16410 36-162, limits assumed)
T2 construct: not shown: His tag
T2 sequence (looked up): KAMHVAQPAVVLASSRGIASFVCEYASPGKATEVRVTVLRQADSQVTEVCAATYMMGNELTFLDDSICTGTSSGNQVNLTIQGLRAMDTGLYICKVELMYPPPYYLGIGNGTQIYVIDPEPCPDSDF

B1: E8 (antibody, V domains shown)
VH: QVQLVQSGAEVKKPGASVKVSCEASGYTFTNYYIHWLRQAPGQGLEWMGIINPSGGSTTYAQKFQGRITMTRDTSTNTLYMELSSLRSEDTAIYYCARRDCRGPSCYFAYWGQGTTVTVSS
VL: DIVMTQSPSSLSASVGDRVTITCRASQSISSYLNWYQQKPGKAPKLLIYAASSLQSGVPPRFSGSGSGTEFTLTISSLQPEDFATYYCQQANSFPPTFGQGTKVDIK
notes: also called antibody E8
B2: F5 (antibody, V domains shown)
VH: EVQLVQSGTEVKKPGSSVKVSCKASGGSFSNYAISWVRQAPGQGLEWMGRIIPILGIANYAQKFQGRVTITADKSTSTAYMELSSLGSEDTAVYYCARESGSYLDPWGQGTLVTVSS
VL: DIVMTQSPDSLAVSLGERATINCKSSQSVLYSPNNKNYLTWYQQKPGQPPKLLMYWASTRESGVPDRFSASGSGTDFTLTISSLQAEDVAVYYCQQSRSGPYTFGQGTKVEIK
B3: G3 (antibody, V domains shown)
VH: QVQLVQSGAEVKKPGASVKVSCKASGYTFTSYYMHWVRQAPGQGLEWMGIINPSGGSTSYAQKFQGRVTMTRDTSTSTVYMELSGLRSEDTAVYYCARYEHDYDSSKATTGYFDYWGQGTLVTVSS
VL: AIQLTQSPDSLAVSLGERATINCKSSQSILYRSNNKNYLAWYQQKPGQPPKLLIYWASTRESGVPDRFSGSGSGTDFTLTISSLQPEDFATYYCQQADRFPITFGQGTRLEIK
B4: C2 (antibody, V domains shown)
VH: QVQLVQSGAEVKKPGASVKVSCKASGYTFTTHYIHWVRQAPGQGLEWMAIINPNDGVKVYAQKFKGRLTVASDTSATTVYMDLSGLTSDDTAVYYCGREQHGGHHDYWGQGTLVTVSS
VL: QAGLTQPASVSGSPGQSITISCTGTSSDVGGYNYVSWYQQHPGKAPKLMIYDVTNRPSGVSNRFSGSKSGNTASLTISGLQAEDEADYYCKSYTSSSTPYVFGTGTKVTVL
B5: A2 (antibody, V domains shown)
VH: QMQLVQSGAEVKMPGSSVRISCKASGGSFTTHFINWVRQAPGQGLEWMGWMNPNTGNTGYAERFQGRVTLTRDTSISTAYLELSSLRSDDTAVYYCARNPAESGRFDPWGQGTLVTVSS
VL: QSALTQPPSASGSPGRSVTISCTGTSNNVGGYNYVSWYQQHPGKAPKLMIYEVTKRPSGVPDRFSGSKSGNTASLTVSGLQAEDEADYYCGTWDGSLNAYVFGTGTKVTVL
B6: G2 (antibody, V domains shown)
VH: QVQLVESGGGLIQPGGSLRLSCAASGFTVSSAYMSWVRQAPGKGLEWVSVIYRGGTTYYADSVKGRFTISRDNSKNTLYLQMNSLRAEDTAVYYCRGEGGNSGDYFDYWGQGTTVTVSS
VL: NFMLTQPASVSGSPGQSITISCTGTSSDVGGYNFVSWYQQHPGKAPKLMIYDVSKRPSGVSNRFSGSKSGNTASLTISGLQAEDEADYYCSSYTSTNTLDVLFGGGTKLTVL
B7: A4 (antibody, V domains shown)
VH: QVQLVESGGGLIQPGGSLRLSCAASGFSVSNNYMNWVRQAPGKGLEWVSVIYRGGSTYYADSVKGRFTISRDNSKNTLYLQMNSLRTEDTAVYYCLREGGTSGDYVNDWGQGTLVTVSS
VL: QSVVTQPPSVSGAPGQRVTISCTGSSSNIGAGYDVHWYQQLPGTAPKLLIYGNKNRPSGVPDRFSGSKSGTSASLAITGLQAEDEADYYCQAYDSSLSVVFGGGTKLTVL
B8: G1 (antibody, V domains shown)
VH: QVQLVQSGAEVKKPGASVKVSCKTSGNTFTNYYMHWVRQAPGQGLEWMGIMNPSGGSTSYAQKFQGRVTMTRDKSTSTVYMELSSLTSEDTAVYYCARDLFPHIYGNYYGMDIWGQGTTVTVSS
VL: QSVVTQPPSVSAAPGQNVTISCSGSSSNIGNNYVSWYQQLPGTAPKLLIYDNNRRASGIPDRFSGSKSGTSATLGITGLQTGDEADYYCGTWDRSLTTDWVFGGGTKLTVL
B9: D5 (antibody, V domains shown)
VH: QVQLQQSGPGLVKPSQTLSLTCAISGDSVSSNSAAWNWIRQSPSRGLEWLGRTYYRSKWYNDYAVSVKSRITINPDTSKNQFSLQLNSVTPEDTAVYYCAMHSGYRNYGMDVWGQGTTVTVSS
VL: QSVVTQPPSVSGAPGQRVTISCTGSSSNIGAGYDVHWYQQLPGTAPKLLIYGNSNRPSGVPDRFSGSKSGTSASLAITGLQAEDEADYYCQSYDSSLSGAVVFGGGTKLTVL
B10: B6 (antibody, V domains shown)
VH: QVQLVQSGAEVKKPGATVKVSCTASGFPFRNYAMHWVRQAPGQRLEWLGWIDAGNGNTKYSQTFHGRVTITRDTSASTAYMELSSLRSEDTAVYYCARDLLWPYLVTSGGAFDIWGQGTMVTVSS
VL: SYELMQPPSTSGTPGQRVTISCSGSSSNIGSHIVNWYQQFPGAAPQLLIYNDDQRPSGVPDRFSGSKSGASASLAISGLQSEDEAHYYCSAWDDILKGPVFGGGTKLTVL
B11: G5 (antibody, V domains shown)
VH: QVQLQQSGPGLVKPSQTLSLTCAISGDSVSSNSAAWNWIRQSPSRGLEWLGRTYYRSKWYNDYAVSVKSRITINPDTSKNQFSLQLNSVTPEDTAVYYCARDRWELPFDYWGQGTTVTVSS
VL: QSVVTQPPSVSAASGQKVIISCSGSNSNIVNNYVSWYQQLPGAAPKVLIYANNKRPSGIPDRFSGSKSGTSAFLAITGLQTGDEADYYCGTWDGSLDVDVFGGGTKLTVL
B12: F6 (antibody, V domains shown)
VH: EVQLVESGGGFVKPGRSLRLSCTASGFTFGDYGMSWFRQAPGKGLEWVGFIRSKAYGGTTDYAASVKGRFTISRDDSKSFAYLQMNSLKTEDTAVYYCTRGHYSASIWGQGTLVTVSS
VL: SYELMQPPSVSVAPGKTARITCGGNNIGSKSVHWYQQRPDQAPVLVIYSDNDRPSGIPERFSGSSSGHTATLTISRVEAGDEADYFCQVWDSNKNEWVFGGGTKLTVL
B13: G12 (antibody, V domains shown)
VH: EVQLVESGAEVKKPGASVKVSCKASGYTFTSYGISWVRQAPGQGLEWMGWISAYNGNTNYAQKLQGRVTMTTDTSTSTAYMELRSLRSDDTAVYYCARGPGILTGYYFDYWGQGTLVTVSS
VL: EIVMTQSPSSLSASVGDRVTITCRASQGINYHLAWYQQKPGKAPKLLIYAASALQSGVPSRFSGTGSGTEFTLTISSLQPEDFATYYCQQFNTYPLTFGGGTKLEIK
B14: F1 (antibody, V domains shown)
VH: EVQLVQSGAEVKKPGASVKVSCKASGYTFTSYGISWVRQAPGQGLEWMGWISAYNGNTNYAQKLQGRVTMTTDTSTSTAYMELRSLRSDDTAVYYCARVGYGGYFDYWGQGTLVTVSS
VL: SYELMQPPSVSKGLRQTATLTCTGNSNNVGNQGADWLQQHQGHPPKLLSYRNNDRPSGISERFSASRSGSTASLTITGLQPEDEADYYCLAWDSSLSAWVFGGGTKVTVL
B15: A7 (antibody, V domains shown)
VH: QMQLVQSGAEVKKPGASVKVSCKASGGTFSSYAISWVRQAPGQGLEWMGGIIPIFGTANYAQKFQGRVTITADESTSTAYMELSSLRSEDTAVYYCAREIGSYSSGWYRAFDIWGQGTMVTVSS
VL: DIVMTQSPSTLSASVGDRVTITCRASQSISSWLAWYQQKPGKAPQLLIYKASNLQSGVPSRFSGSGSVTEFSLTISSLLPEDFATYYCQQYSRPPWTFGQGTKVEIK
B16: A12 (antibody, V domains shown)
VH: QVQLVESGGGLVQPGGSLRLSCAASGFTFSNYAMNWVRQTPGKGLEWVSVNYNDGFGTFNGYYADSVKGRFIISRDNSKNTLYLQMNSLRVDDTAVYYCARDSGVAGPYYFDNWGQGTLVTVSS
VL: AIQLTQSPSTLSASVGDRVTITCRASQSISSWLAWYQQKPGKAPKLLIYKASSLESGVPSRFSGSGSGTEFTLTISSLQPDDFATYYCQQYNSSPLTFGGGTKLEIK
B17: F3 (antibody, V domains shown)
VH: QMQLVQSGAEVKKPGASVTVSCKASGYTFTNSYIHWVRQAPGQGLEWVGRLIPSSGYTIFSQKLQGRVSMTRDTSMSTHYLTLSHLRPEDTAVYYCATDGGNYNLDFWGQGTLVTVSS
VL: QPVLTQPPSVSGSPGQSVTISCTGTSSDVGGYNYVSWYQQHPGKAPKLMIYDVSSRPSGVSNRFSGSKSDNTASLTISGLQAEDEADYYCSSYTSSSPYVFGTGTKVTVL
B18: F7 (antibody, V domains shown)
VH: QVQLVQSGAEVKKPGASVKVSCKASGYAFDGHYMHWVRQAPGQRLEWMGWVDPHSGATNYAQNFQGGVTMTRDTSINTVYMELSSLKSDDTAVYYCARDFYDTSAKSGAFDIWGQGTMVTVSS
VL: AIQLTQSPSSVSASVGDRVTITCRASQGISSWLAWYQQKPGKAPKLLIYAASSLQSGVPSRFSGSGSGTDFTLTISSLQPEDFATYYCQQVNSFPWAFGQGTKVEIK
notes: captured by anti-human Fc antibody in SPR, so it has a human Fc; also called anti-CTLA4 antibody F7

The target in one assay is T1, human CTLA4. Nature of the assay: SPR (BiaCore). (In general: SPR reads the build-up and loss of mass on a sensor chip optically.)
What is called Kd is the equilibrium constant for the complex coming apart. By koff is commonly meant the rate constant with which the complex falls apart. As a reminder, the kon is a measure of how fast the partners come together. Molecule B1 displayed a Kd of 58.9 nM, a koff of 0.00488 s⁻¹ and a kon of 82900 M⁻¹ s⁻¹.

In another assay the target is T1, human CTLA4. Briefly: selection of human antibodies; method not described.
Take B2: the binding result is reported as “binds”.

As to B3, the binding result was “binds”.

Regarding B4, the binding result is “binds”. On the same count and under the same terms, the value for B5 was “binds”; that for B6 was “binds”. Same read-out and setting: the value for B7 was “binds”; that for B8 was “binds”; that for B9 was “binds”. For B10, the binding result is reported as “binds”. With B11, the binding result was “binds”.

On to B12, for which the binding result is reported as “binds”. Regarding B13, the binding result is on record as “binds”.

For B14, the binding result is on record as “binds”. On to B15, for which the binding result is given as “binds”. The same measure, in the same setting: under B16 stands “binds”; under B17, “binds”.

Another assay deals with T2, Recombinant human CTLA4/His. Briefly: SPR (Biacore), antibody captured on anti-human Fc, CTLA4/His as analyte, 1:1 model. The method, then:
This example illustrates binding affinities of exemplary anti-CTLA4 antibodies disclosed herein. Affinities were determined using surface plasmon resonance (Biacore). Briefly, Anti-human Fc antibody (GE, BR-1008-39) was immobilized on CM5 sensor chip to approximately 1000 RU using standard NHS/EDC coupling methodology. Antibodies (about 10 μg/ml) were captured for 60 s at a flow rate 10 μl/min Recombinant human CTLA4/His was serially diluted in running buffer (HBS-EP). All measurements were conducted with a flow rate of 30 μL/min Surfaces were regenerated with 3M MgCl₂ for 60 s. A 1:1 (Langmuir) binding model was used to fit the data.
For B18, the Kd amounted to 0.738 nM, the koff was determined as 0.000217 s⁻¹ and the kon is 294000 M⁻¹ s⁻¹.
